Laboratory results from publication PMC7069974.

Target: His-flXPA (human) (UniProt P23025)
Test: AFM
Settings: single dG-C8-AAF at 30% from 3' end; EMSA: 8 nM DNA, 20 mM HEPES pH 7.5, 150 mM NaCl, 5 mM DTT, 0.5 mg/ml BSA, 5% glycerol, 25 min at room temperature; gel 5% native, 0.5x TBE, 4 C. AFM: 100 nM …; scale: fold specificity for dG-C8-AAF over non-damaged DNA

Chain of His-flXPA (human) (P23025 whole entry): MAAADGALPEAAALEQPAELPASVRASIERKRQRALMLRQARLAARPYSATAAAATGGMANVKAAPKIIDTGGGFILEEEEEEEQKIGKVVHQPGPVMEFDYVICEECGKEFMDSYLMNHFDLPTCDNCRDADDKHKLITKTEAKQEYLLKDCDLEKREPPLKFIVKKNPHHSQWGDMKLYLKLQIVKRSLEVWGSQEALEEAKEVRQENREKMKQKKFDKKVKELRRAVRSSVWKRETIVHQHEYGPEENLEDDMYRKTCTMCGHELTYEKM

With AAF538 as the substance, how does the binding signal read?
Its binding signal is 660.
